Laboratory results reported in patent US20260035478A1 (TENEOBIO, published 2026).
Substitutions are numbered along the chain they refer to.

B1: anti-MSLN single domain antibody clone 394940 (VHH)
VHH: EVQLLESGGGLVQPGGSLRLSCAASGFSFSSYAMSWVRQAPGKGLEWVSSISSSGDSTYYADSVKGRFTISRDNSKNTLYLQMNSLRAEDTAVYYCARPPSYYDFLSDPDYWGQGTLVTVSS
notes: Human VH single domain ('heavy chain antibody variable domain')
B2: anti-MSLN single domain antibody clone 392774 (VHH)
VHH: B1 VHH with S28T, S35T, S50A, S52T, S53G, Y80F, N84S, A88G, R98K
notes: Human VH single domain
B3: anti-MSLN single domain antibody clone 394908 (VHH)
VHH: B1 VHH with V12I, S50N, S53G, R98K
notes: Human VH single domain
B4: anti-MSLN single domain antibody clone 394955 (VHH)
VHH: B1 VHH with S28T, R98K
notes: Human VH single domain; tested as antibody-containing supernatant
B5: anti-MSLN single domain antibody clone 394925 (VHH)
VHH: B1 VHH with V12I, S50A, R98K
notes: as for B4
B6: anti-MSLN single domain antibody clone 394972 (VHH)
VHH: B1 VHH with S28T, S50A, R98K
notes: as for B4
B7: anti-MSLN single domain antibody clone 394912 (VHH)
VHH: B1 VHH with V12I, S57G, R98K
notes: as for B4
B8: anti-MSLN single domain antibody clone 394947 (VHH)
VHH: B1 VHH with V12I, N84K, R98K
notes: as for B4
B9: anti-MSLN single domain antibody clone 394907 (VHH)
VHH: B1 VHH with V12I, S28T, R98K
notes: as for B4
B10: anti-MSLN single domain antibody clone 394901 (VHH)
VHH: B1 VHH with V12I, R98K
notes: as for B4
B11: anti-MSLN single domain antibody clone 394910 (VHH)
VHH: B1 VHH with R98K
notes: as for B4
B12: anti-MSLN single domain antibody clone 394971 (VHH)
VHH: B1 VHH with V12I, S50Y, S53G, R98K
notes: as for B4
B13: anti-MSLN single domain antibody clone 394966 (VHH)
VHH: B1 VHH with V12G, S28T, A33P, S50A, S53G, R98K
notes: as for B4
B14: anti-MSLN single domain antibody clone 394985 (VHH)
VHH: B1 VHH with S28T, S50A, S52T, S53G, Y80F, N84S, A88G, R98K
notes: as for B4
B15: anti-MSLN single domain antibody clone 394979 (VHH)
VHH: EVQLLESGGGVVQPGRSLRLSCAASGFTFSSYDMHWVRQAPGKGLEWVAVISYDGSKKYSADSVKGRFTISRDNSKNTLYLQMNSLRAEDTAVYYCAKPPSYYDFLSDPDYWGQGTLVTVSS
notes: as for B4
B16: anti-MSLN single domain antibody clone 394982 (VHH)
VHH: B1 VHH with S28T, S30T, R98K
notes: as for B4
B17: anti-MSLN single domain antibody clone 394930 (VHH)
VHH: B1 VHH with V12I
notes: as for B4
B18: anti-MSLN single domain antibody clone 394921 (VHH)
VHH: B1 VHH with S28T, S50N, S53G, R98K
notes: as for B4
B19: anti-MSLN single domain antibody clone 394991 (VHH)
VHH: B1 VHH with S28T, S35N, D56G
notes: as for B4
B20: anti-MSLN single domain antibody clone 394905 (VHH)
VHH: B1 VHH with V12G, S28T, A33P, R98K
notes: as for B4

The binders below were run against T1, human mesothelin (MSLN) on cells (human, UniProt Q13421 296-598) (assay: flow cytometry dose curve, HeLa cells).
T1 construct: whole, on cells; One molecule is used for human MSLN on transfected CHO cells and on HeLa cells; the cell line is named under assay; also called huMSLN
Description: (§1) Cell-binding dose curves for example anti-MSLN single domain antibodies described herein were generated using CHO cells expressing human MSLN (FIG. 1A), Hela cells (FIG. 1B), and CHO-OFFtgt cells (FIG. 1C). The single domain antibodies were tested at a starting concentration of 150 nM, followed by 3-fold serial dilutions for an 8-point dose curve. All washes and dilutions of cells, antibodies, and reagents were performed using flow buffer (1× phosphate buffered saline (PBS), 1% bovine serum albumin (BSA), and 0.1% NaN₃). Cells were pelleted and resuspended at 1×10⁶ cells/mL in flow buffer. Then, 50 μL cells were combined with 50 μL of test antibody and incubated 30 minutes at 4° C., followed by two wash steps with flow buffer. Cells were then resuspended in 50 μL PE-conjugated secondary diluted to 1.25 μg/mL (Southern Biotech #2042-09) and incubated for 20 minutes at 4° C. After two wash steps, cells were resuspended in flow buffer and analyzed using a BD Celesta system. PE mean fluorescence intensity was plotted as a fold over background (cells incubated with secondary detection antibody only).
To determine cell binding EC50 values for example anti-MSLN single domain antibodies of the present disclosure, cell binding dose curves were generated using Hela cells and CHO cells expressing human MSLN. […]

T1 sequence (Q13421 other isoform, or with tags, fused parts or gaps limits assumed): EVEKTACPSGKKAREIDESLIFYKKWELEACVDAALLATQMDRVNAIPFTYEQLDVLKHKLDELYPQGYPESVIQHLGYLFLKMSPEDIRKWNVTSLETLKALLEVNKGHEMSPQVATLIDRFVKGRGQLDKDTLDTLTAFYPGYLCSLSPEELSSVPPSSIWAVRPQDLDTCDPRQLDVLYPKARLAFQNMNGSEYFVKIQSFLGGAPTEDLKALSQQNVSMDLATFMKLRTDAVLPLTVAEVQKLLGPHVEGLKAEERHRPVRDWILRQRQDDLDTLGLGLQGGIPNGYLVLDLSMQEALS

Binder | EC50
B1 | 2.6 nM
B2 | 15.6 nM

These binders were tested against T1, human mesothelin (MSLN) on cells (assay: flow cytometry dose curve, CHO cells expressing human MSLN).
Description: as §1
To determine cell binding EC50 values for example anti-MSLN single domain antibodies of the present disclosure, cell binding dose curves were generated using Hela cells and CHO cells expressing human MSLN. The single domain antibodies were tested at a starting dose of 150 nM, followed by 3-fold serial dilutions for an 8-point dose curve as described in Example 2. The transformed data were plotted as an xy-graph using the non-linear regression curve fit (available in GraphPad Prism 8.4.3) to obtain the EC50 values (nM), which are summarized in Table E2.

Binder | EC50
B3 | 71.1 nM
B1 | 6.5 nM
B2 | 7.2 nM

The binders below were run against T1, human mesothelin (MSLN) on cells (assay: flow cytometry, supernatant diluted 1:5, CHO cells expressing human MSLN).
Description: Pelleted CHO cells were resuspended in flow buffer (1× phosphate buffered saline (PBS), 1% bovine serum albumin (BSA), and 0.1% NaN₃) at 1.25×10⁶ cells/mL. Antibody containing supernatants were diluted 1:5 in flow buffer, and 40 μL cells plus 10 μL diluted antibody supernatant were incubated for 30 minutes at 4° C. Cells were washed with flow buffer and resuspended in 50 μL phycoerythrin (PE)-conjugated secondary antibody (Southern Biotech #2042-09) diluted in flow buffer to 1.25 μg/mL and incubated for 20 minutes at 4° C. After two wash steps, cells were resuspended in flow buffer and analyzed using a Guava easyCyte 8HT system. Table E1 summarizes the target binding activity of the anti-MSLN single domain antibodies as fold over background mean fluorescence intensity (MFI) signal.

Binder | fold over background mean fluorescence intensity (MFI)
B4 | 294 fold over background
B3 | 508 fold over background
B5 | 277 fold over background
B1 | 662 fold over background
B6 | 477 fold over background
B7 | 404 fold over background
B8 | 285 fold over background
B9 | 429 fold over background
B10 | 400 fold over background
B2 | 246 fold over background
B11 | 313 fold over background
B12 | 373 fold over background
B13 | 356 fold over background
B14 | 378 fold over background
B15 | 160 fold over background
B16 | 405 fold over background
B17 | 540 fold over background
B18 | 381 fold over background
B19 | 281 fold over background
B20 | 227 fold over background

The binders below were run against T2, recombinant human MSLN (R&D Systems, #3265-MS) (human, UniProt Q13421 296-580, limits assumed) (assay: BLI (Octet HTX), antibody on AHC sensors, antigen in solution, 1:1 model).
T2 construct: Bought reagent; It was loaded on Ni-NTA sensors for the binning, so it apparently carries a His tag; also called antigen
Description: Table E3 summarizes affinity and epitope bin information for example anti-MSLN single domain antibodies of the present disclosure. The affinity of each single domain antibody to recombinant human MSLN (R&D Systems, #3265-MS) was measured by Bio-layer interferometry (BLI) using an Octet HTX. AHC (Anti-hIgG Fc Capture) sensors were used to immobilize test antibody at 5 μg/mL. After baseline readings, sensors were dipped into antigen solutions (starting at 500 nM followed by a 7-point, 2-fold dilution series). Association and dissociation were measured for 180 and 240 seconds respectively. Data were analyzed with Octet Data Analysis v11.0 HT (ForteBio) using a standard 1:1 binding model. Epitope bins for the single domain antibodies were determined by an in-tandem competition BLI binding experiment using an Octet HTX. The antigen (5 μg/mL) was loaded on the sensor Ni-NTA sensor followed by a baseline in kinetic buffer. The antigen-coated sensor was then dipped into a saturating concentration Antibody 1. A second baseline was now set for 300 seconds. Then the antigen-antibody 1 complex was dipped into Antibody 2 solution for 180 seconds and then allowed to dissociate.

T2 sequence (Q13421 other isoform, or with tags, fused parts or gaps limits assumed): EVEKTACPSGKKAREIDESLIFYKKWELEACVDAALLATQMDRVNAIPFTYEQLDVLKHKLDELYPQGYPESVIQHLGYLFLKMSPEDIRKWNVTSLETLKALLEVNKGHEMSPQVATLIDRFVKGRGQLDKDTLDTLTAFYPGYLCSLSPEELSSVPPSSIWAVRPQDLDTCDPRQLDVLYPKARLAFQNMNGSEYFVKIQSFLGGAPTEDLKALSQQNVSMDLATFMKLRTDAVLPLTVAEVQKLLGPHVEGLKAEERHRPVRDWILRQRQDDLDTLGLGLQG

Binder | Kd
B3 | 64.6 nM
B1 | 21 nM
B2 | 185 nM
